From patent US20110177077A1

Columns and labels:
[1] = molecular target: human PAX 5 protein (human) (UniProt Q02548); experiment: IHC, Reed Sternberg cells, Hodkins lymphoma 1, antibody at 3 ug/mL
[2] = molecular target: human PAX 5 protein (human) (UniProt Q02548); experiment: IHC, Reed Sternberg cells, Hodkins lymphoma 4, antibody at 3 ug/mL
[3] = molecular target: human PAX 5 protein (human) (UniProt Q02548); experiment: IHC, Reed Sternberg cells, Hodkins lymphoma 2, antibody at 3 ug/mL
[4] = molecular target: human PAX 5 protein (human) (UniProt Q02548); experiment: IHC, Reed Sternberg cells, Hodkins lymphoma 3, antibody at 3 ug/mL

UniProt Q02548, sequence (Q02548 whole entry): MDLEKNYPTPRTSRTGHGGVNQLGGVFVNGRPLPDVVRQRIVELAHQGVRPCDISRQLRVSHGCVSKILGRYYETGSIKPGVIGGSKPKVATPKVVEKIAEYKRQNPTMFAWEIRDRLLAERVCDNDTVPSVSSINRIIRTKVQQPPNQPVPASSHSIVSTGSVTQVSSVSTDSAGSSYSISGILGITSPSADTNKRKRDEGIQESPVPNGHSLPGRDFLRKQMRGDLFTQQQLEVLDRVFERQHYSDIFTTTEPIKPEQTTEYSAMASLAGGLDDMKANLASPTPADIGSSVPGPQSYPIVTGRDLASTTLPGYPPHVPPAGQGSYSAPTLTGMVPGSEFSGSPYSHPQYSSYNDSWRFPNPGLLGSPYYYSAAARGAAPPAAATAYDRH

Substance | IHC staining intensity score (score on a scale of 0 to 6) [1] | IHC staining intensity score (score on a scale of 0 to 6) [2] | IHC staining intensity score (score on a scale of 0 to 6) [3] | IHC staining intensity score (score on a scale of 0 to 6) [4]
monoclonal mouse B-Cell Specific Activator Protein (BSAP), clone DAK-Pax5 (antibody) | 6 | 6 | 0 | 2
monoclonal mouse PAX 5, clone 24 (BD Biosciences) (antibody) | 2 | 2 | 0 | 1
